In the RNAGym collection of RNA variant scans (doi:10.1021/acssynbio.7b00057):

B1: Pistol ribozyme (parent)
chain: GGGUCGUUGUUCCAUAAUCGCGUGGAUAUGGCACGCAAGUUUCUACCGGGCACCGUAAAUGUCCGACUGGAGCCGUUCGGGCGGCUAUAAACAGACCUCAGGCCCGAAGCGUGGCGGCACCUGCCGCCGGUGGUAAAAAAGAUCGGAAGAGCACACGUCU

Variants of: B1
Test: aptazyme ON/OFF ratio, guanine; higher = stronger switching; co-transcriptional cleavage with and without guanine

Point of comparison: U7C G9U U10C C12G C13A, “aptazyme ON/OFF ratio” value 1.05. Against it:
- U7C G9U U10A U11A C12A C13A — higher, 1.3
- U7C G9U U10A U11C C12A C13U — higher, 1.23
- U7C G9U U10A U11C C12A C13G — higher, 1.14
- U7C G9U U10A U11C C12A C13A — higher, 1.22
- U7C G9C U10A C12U — higher, 1.06
- U7C G9C U10G C13U — higher, 1.07
- U7C G9C U10G C13G — higher, 1.08
- U7C G9C U10G C13A — higher, 1.11
- U7C G9C U10C U11A C12A C13U — the same, 1.05
- U7C G9C U10C U11A C12A C13G — the same, 1.05
- U7C G9C U10C U11A C12A C13A — higher, 1.08
- U7C G9C U10A C12U C13G — higher, 1.07
- U7C G9C U10A C12U C13U — lower, 1.04
- U7C G9C U10A C12U C13A — higher, 1.08
- U7C G9C U10G U11C C12A C13A — higher, 1.12
- U7C G9C U10G U11C C12A C13G — higher, 1.09
- U7C G9C U10G U11C C12A C13U — higher, 1.11
- U7C G9U U10C C12A C13A — higher, 1.09
- U7C G9U U10C C12A C13U — higher, 1.09
- U7C G9U U10C C12A C13G — higher, 1.09
- U7C G9U C13A — lower, 1.04
- U7C G9U C13U — higher, 1.06
- U7C G9U C13G — lower, 1.04
- U7C G9C U10C C13A — lower, 1.04
- U7C G9C U10C C13G — lower, 1.04
- U7C G9C U10C C13U — higher, 1.08
- U7C G9C U11A C12G — lower, 1
- U7C G9C U11A C12U — lower, 1.02
- U7C G9C U11A C12A — higher, 1.07
- U7C G9U U10A U11C C12G C13G — higher, 1.19
- U7C G9U U10A U11C C12G C13U — higher, 1.15
- U7C G9U U10A U11C C12G C13A — higher, 1.16
- U7C G9U C12G C13A — higher, 1.11
- U7C G9U C12G C13U — higher, 1.15
- U7C G9U C12G C13G — higher, 1.1
- U7C G9U U10A C13U — higher, 1.22
- U7C G9U U10A C13A — higher, 1.18
- U7C G9U U10A C13G — lower, 1.04
- U7C G9C U10G U11A C12G — higher, 1.23
- U7C G9C U10G U11A C12U — higher, 1.15
- U7C G9C U10G U11A C12A — higher, 1.25
- U7C G9U U10A U11A C12G — higher, 1.29
- U7C G9U U10A U11A C12A — higher, 1.2
- U7C G9U U10A U11A C12U — higher, 1.36
- U7C G9C U10A U11A C12G C13U — higher, 1.07
- U7C G9C U10A U11A C12G C13A — higher, 1.08
- U7C G9C U10A U11A C12G C13G — higher, 1.12
- U7C G9C U10G C12U — higher, 1.2
- U7C G9C U10G C12A — higher, 1.12
- U7C G9C U10G C12G — higher, 1.13
- U7C G9U U10C U11A — higher, 1.11
- U7C G9U U10A U11C C12U C13A — higher, 1.23
- U7C G9U U10A U11C C12U C13U — higher, 1.29
- U7C G9U U10A U11C C12U C13G — lower, 1.03
- U7C G9C U10C U11A C12G C13U — higher, 1.14
- U7C G9C U10C U11A C12G C13A — higher, 1.31
- U7C G9C U10C U11A C12G C13G — higher, 1.41
- U7C G9C U10C U11G C12A — the same, 1.05
- U7C G9C U10C U11G C12G — higher, 1.14
- U7C G9C U10C U11G C12U — lower, 1.01
- U7C G9C U11G C12A C13G — higher, 1.06
- U7C G9C U11G C12A C13A — the same, 1.05
- U7C G9C U11G C12A C13U — higher, 1.07
- U7C G9C U10C C12G C13U — higher, 1.08
- U7C G9C U10C C12G C13G — higher, 1.12
- U7C G9C U10C C12G C13A — higher, 1.09
- U7C G9U U10A U11G C12U C13A — higher, 1.09
- U7C G9U U10A U11G C12U C13G — higher, 1.11
- U7C G9U U10A U11G C12U C13U — higher, 1.18
- U7C G9C U10G C12G C13A — higher, 1.11
- U7C G9C U10G C12G C13U — higher, 1.1
- U7C G9C U10G C12G C13G — higher, 1.07
- U7C G9C U10G U11G C12G C13U — higher, 1.09
- U7C G9C U10G U11G C12G C13A — higher, 1.08
- U7C G9C U10G U11G C12G C13G — higher, 1.11
- U7C G9U U10A U11C C12G — higher, 1.43
- U7C G9U U10A U11C C12A — higher, 1.29
- U7C G9U U10A U11C C12U — higher, 1.1
- U7C G9C U10A U11C C12A C13G — higher, 1.07
- U7C G9C U10A U11C C12A C13A — higher, 1.08
- U7C G9C U10A U11C C12A C13U — the same, 1.05
- U7C G9C U10G U11G C12U C13G — higher, 1.13
- U7C G9C U10G U11G C12U C13A — higher, 1.07
- U7C G9C U10G U11G C12U C13U — higher, 1.12
- U7C G9C U11G C12G C13A — higher, 1.08
- U7C G9C U11G C12G C13U — higher, 1.07
- U7C G9C U11G C12G C13G — higher, 1.09
- U7C G9C U10G U11G C13G — higher, 1.11
- U7C G9C U10G U11G C13A — higher, 1.1
- U7C G9C U10G U11G C13U — higher, 1.09
- U7C G9U U10A C12G — higher, 1.47
- U7C G9U U10A C12U — higher, 1.37
- U7C G9U U10A C12A — higher, 1.82
- U7C G9C U11C C12U C13U — lower, 1.03
- U7C G9C U11C C12U C13G — lower, 1.03
- U7C G9C U11C C12U C13A — the same, 1.05
- U7C G9C U10C U11C C12U C13U — lower, 1.01
- U7C G9C U10C U11C C12U C13G — lower, 1.02
- U7C G9C U10C U11C C12U C13A — lower, 1.03
- U7C G9C U10G U11C C12U — higher, 1.11
- U7C G9C U10G U11C C12G — higher, 1.25
- U7C G9C U10G U11C C12A — higher, 1.19
- U7C G9C U10G U11A C12A C13U — higher, 1.4
- U7C G9C U10G U11A C12A C13A — higher, 1.31
- U7C G9C U10G U11A C12A C13G — higher, 1.09
- U7C G9C U10A U11C C13G — lower, 1.03
- U7C G9C U10A U11C C13U — lower, 1.02
- U7C G9C U10A U11C C13A — lower, 1.02
- U7C G9C U11G C12U C13G — higher, 1.12
- U7C G9C U11G C12U C13U — higher, 1.21
- U7C G9C U11G C12U C13A — higher, 1.1
- U7C G9U U10A U11A C13U — higher, 1.25
- U7C G9U U10A U11A C13G — lower, 1.04
- U7C G9U U10A U11A C13A — higher, 1.26
- U7C G9C U10G U11C C12U C13G — the same, 1.05
- U7C G9C U10G U11C C12U C13U — higher, 1.16
- U7C G9C U10G U11C C12U C13A — higher, 1.12
- U7C G9C U10A U11C C12U — lower, 1.04
- U7C G9C U10A U11C C12A — higher, 1.07
- U7C G9C U10A U11C C12G — higher, 1.26
- U7C G9C U11A C12A C13A — higher, 1.08
- U7C G9C U11A C12A C13G — higher, 1.07
- U7C G9C U11A C12A C13U — lower, 1.04
- U7C G9U U10A U11G C12A C13A — the same, 1.05
- U7C G9U U10A U11G C12A C13G — higher, 1.1
- U7C G9U U10A U11G C12A C13U — higher, 1.18
- U7C G9C U10C C12A C13A — higher, 1.06
- U7C G9C U10C C12A C13U — lower, 1.04
- U7C G9C U10C C12A C13G — higher, 1.06
- U7C G9C U10A C12G C13G — higher, 1.11
- U7C G9C U10A C12G C13U — higher, 1.12
- U7C G9C U10G U11A C13G — the same, 1.05
- U7C G9C U10G U11A C13A — higher, 1.17
- U7C G9C U10G U11A C13U — higher, 1.11
- U7C G9C U10G C12A C13A — higher, 1.15
- U7C G9C U10G C12A C13U — higher, 1.12
- U7C G9C U10G C12A C13G — higher, 1.14
- U7C G9C U10A U11G — higher, 1.09
- U7C G9C U10A U11A — the same, 1.05
- U7C G9C U10A U11C — lower, 1.04
- U7C G9U U10C C12G C13G — higher, 1.06
- U7C G9U U10C C12G C13U — higher, 1.07
- U7C G9C U10G U11C C13U — higher, 1.06
- U7C G9C U10G U11C C13G — lower, 1.04
- U7C G9C U10G U11C C13A — higher, 1.1
- U7C G9C U10A U11G C12G C13G — higher, 1.09
- U7C G9C U10A U11G C12G C13U — higher, 1.13
- U7C G9C U10A U11G C12G C13A — higher, 1.1
- U7C G9U U10A U11A C12G C13A — higher, 1.17
- U7C G9U U10A U11A C12G C13G — higher, 1.19
- U7C G9U U10A U11A C12G C13U — higher, 1.2
- U7C G9C U10G — higher, 1.08
- U7C G9C U10C — higher, 1.14
- U7C G9U U10A U11A C12U C13U — higher, 1.25
- U7C G9U U10A U11A C12U C13G — higher, 1.14
- U7C G9U U10A U11A C12U C13A — higher, 1.27
- U7C G9C U10A U11A C12U C13A — lower, 1.04
- U7C G9C U10A U11A C12U C13U — higher, 1.09
- U7C G9C U10A U11A C12U C13G — higher, 1.06
- U7C G9U U10C U11A C12A — higher, 1.25
- U7C G9C U10C U11G C12U C13G — higher, 1.1
- U7C G9C U10C U11G C12U C13U — higher, 1.09
- U7C G9C U10C U11G C12U C13A — higher, 1.08
- U7C G9U U10C C12G — higher, 1.09
- U7C G9U U10C C12A — higher, 1.1
- U7C G9U U10C C12U — higher, 1.09
